B1: C58 Atu4375 gene: recombinant scyllo-inositol dehydrogenase, Atu4375 gene product of Agrobacterium tumefaciens C58 ATCC33970, SEQ ID NO: 4 (protein)
chain: MSSATKKFDSRRIRLGMVGGGQGAFIGAVHRIAARLDDRYELVAGALSSDPARAAASATLLGIAPERSYASFEDMAATEAGREDGIEAVAIVTPNHLHFAPSKAFLEAGIHVICDKPVTATLEEAKALAGIVRASDSLFVLTHNYTGYAMLRQMREMIAEGAIGKLRHVQAEYAQDWLTEAVEKTGAKGAEWRTDPSRSGAGGAIGDIGTHAFNAAAFVTGEIPSSLYADLTSFVPGRQLDDSANILLRYDSGAKGMLWASQIAVGNENALSLRVYGDKGGLEWHHRVPDELWFTPYGEPKRLITRNGAGAGAAANRVSRVPSGHPEGYLEGFATIYREAADAIIAKREGETAAGEVIYPGMEDGLAGLAFIDAAVRSSQTSTWVGIDI
modifications: Agrobacterium tumefacience
B2: C58 Atu3234 gene: recombinant scyllo-inositol dehydrogenase, Atu3234 gene product of Agrobacterium tumefaciens C58 ATCC33970, SEQ ID NO: 6 (protein)
chain: MAIEGKTTDVANKRIRLGMVGGGSGAFIGGVHRMAARLDNRFDLVAGALSSTPEKSLASGRELGLDSERCYGSFEEMAEKEALREDGIEAVAIVTPNHVHYPAAKAFLERGIHVICDKPLTSNLEDAKKLKDVADKADALFILTHNYTGYPMVRHARELVEAGALGNIRLVQMEYPQDWLTEAVEQTGAKQAVWRTDPAQSGVGGSTGDIGTHAYNLGCFISGLEADELAADVHTFVEGRRLDDNAHVMMRFKPKGGKQPARGMLWCSQVAVGHENGLKIRLYGDKAGLEWTQADPNYLWFTKLGEPKQLITRGGAGAGAAAARVTRIPSGHPEGYLEAFATIYTEAAHAIEARRTGSALDKAVIYPTVDDGVKGVAFVTACIESGKKNGGWVKL
modifications: Agrobacterium tumefacience
B3: BG14057 gene: recombinant scyllo-inositol dehydrogenase, BG14057 gene product of Bacillus subtilis 168 ATCC23857, SEQ ID NO: 8 (protein, listed as Bacillus subtilis)
chain: MITLLKGRRKVDTIKVGILGYGLSGSVFHGPLLDVLDEYQISKIMTSRTEEVKRDFPDAEVVHELEEITNDPAIELVIVTTPSGLHYEHTMACIQAGKHVVMEKPMTATAEEGETLKRAADEKGVLLSVYHNRRWDNDFLTIKKLISEGSLEDINTYQVSYNRYRPEVQARWREKEGTATGTLYDLGSHIIDQTLHLFGMPKAVTANVMAQRENAETVDYFHLTLDYGKLQAILYGGSIVPANGPRYQIHGKDSSFIKYGIDGQEDALRAGRKPEDDSWGADVPEFYGKLTTIRGSDKKTETIPSVNGSYLTYYRKIAESIREGAALPVTAEEGINVIRIIEAAMESSKEKRTIMLEH
B4: ydgJ gene: recombinant scyllo-inositol dehydrogenase, ydgJ gene product of Escherichia coli K12 ATCC10798, SEQ ID NO: 2 (protein, listed as Escherichia coli)
chain: MSDNIRVGLIGYGYASKTFHAPLIAGTPGQELAVISSSDETKVKADWPTVTVVSEPKHLFNDPNIDLIVIPTPNDTHFPLAKAALEAGKHVVVDKPFTVTLSQARELDALAKSLGRVLSVFHNRRWDSDFLTLKGLLAEGVLGEVAYFESHFDRFRPQVRDRWREQGGPGSGIWYDLAPHLLDQAITLFGLPVSMTVDLAQLRPGAQSTDYFHAILSYPQRRVILHGTMLAAAESARYIVHGSRGSYVKYGLDPQEERLKNGERLPQEDWGYDMRDGVLTRVEGEERVEETLLTVPGNYPAYYAAIRDALNGDGENPVPASQAIQVMELIELGIESAKHRATLCLA

Key:
Type in all cases: biochemical
[1] = Optimum pH of scyllo-inositol dehydrogenase; settings: 200 mM phosphate buffer (pH 5.0 to 9.0); 90% or more of the maximum activity
Description: The optimum pH can be confirmed by: mixing 5 μl of a reaction solution (200 mM […] of pH 5.0 to 9.0 containing 2% of NADPH, and 1% of scyllo-inosose) and 5 μl of an enzyme solution; allowing the mixture to react at 36° C. for 30 minutes; adding 500 μl of water immediately after the completion of the reaction; determining the absorbance at 340 nm; and determining a decrease in the absorbance at 340 nm with respect to a blank value of a test solution containing water instead of the enzyme solution. The term “optimum pH” means a pH at which the enzyme has 90% or more of the maximum activity. The enzyme of the present invention can be divided depending on, for example, a range of the optimum pH into groups each having: an optimum pH in an acidic region (optimum pH is pH of 5.5 to 6.5); an optimum pH in a neutral region (optimum pH is pH of 6.5 to 7.5 or 6.5 to 8.5); and an optimum pH in an alkaline region (optimum pH is pH of 7.0 to 8.5 or 7.5 to 9.0).
The optimum pH of the enzymes of the present invention was determined by: mixing 5 μl of a reaction solution (200 mM phosphate buffer (pH 5.0 to 9.0), 2% of NADPH, and 1% of scyllo-inosose) with 5 μl of an enzyme solution; and allowing the mixture to react at 36° C. for 30 min. After the reaction, 500 μl of water was immediately added thereto, and the absorbance at 340 nm was measured. From the blank value of a test solution prepared by using water instead of the enzyme solution, the decrease in the absorbance at 340 nm was measured. The enzyme solution was diluted as required.

[2] = Effects of heavy metal on scyllo-inositol dehydrogenase; settings: 2 mM heavy metal in reaction solution, no addition group = 100%
Description: Effects by the heavy metals can be confirmed by: mixing 5 μl of a reaction solution (200 mM Tris buffer of pH 8.0 containing 2% of NADPH, 1% of scyllo-inosose, and 2 mM metal salt) and 5 μl of an enzyme solution; allowing the mixture to react at 36° C. for 30 minutes; adding 500 μl of water immediately after the completion of the reaction; determining the absorbance at 340 nm; and determining a decrease in the absorbance at 340 nm with respect to a blank value of a test solution containing water instead of the enzyme solution. The term “activated” means the case where the enzymatic activity of a fraction added with 1 mM of a heavy metal is 105% or more, preferably 120% or more, with respect to the enzymatic activity of a fraction added with no heavy metal as 100%. On the other hand, the term “inhibited” means the case where the enzymatic activity of the fraction added with 1 mM of a heavy metal is 95% or less, preferably 70% or less, with respect to the enzymatic activity of the fraction added with no heavy metal as 100%.
The effects of heavy metal on the enzymes of the present invention were determined by: mixing 5 μl of a reaction solution (200 mM Tris buffer (pH 8.0), 2% of NADPH, 1% of scyllo-inosose, and 2 mM of a heavy metal) with 5 μl of an enzyme solution; and allowing the mixture to react at 36° C. for 30 min. After the reaction, 500 μl of water was immediately added thereto, and the absorbance at 340 nm was measured. From the blank value of a test solution prepared by using water instead of the enzyme solution, the decrease in the absorbance at 340 nm was measured. The enzyme solution was diluted as required. CaCl2, CoCl2, ZnSO4, MgSO4, SnCl2, NiCl2, and MnSO4 were used as metallic salts. The activity of the no addition group was defined as 100%, and the relative activities were compared. […] Most of the enzymes were inhibited in the presence of Zn^2+ ion, in contrast, the enzyme derived from Bacillus subtilis 168 was activated in the presence of Zn^2+ ion.

[3] = Enzyme reaction product of scyllo-inosose reduction measured by HPLC; settings: for share of scyllo-inositol in the product of scyllo-inosose reduction: 10 mg scyllo-inosose, 40 mg NADPH, 10 U enzyme, 36° C., 4 hours, myo-inositol not detected; for Reduction reaction product: SIS: scyllo-inosose, SI: scyllo-inositol
Description: Meanwhile, the enzyme reaction product was measured as follows: 10 mg of scyllo-inosose, 40 mg of NADPH, and 10 U of the enzyme were allowed to react in 1.0 ml of 100 mM Tris buffer (pH 8.0) at 36° C. for 4 hours, and a heat treatment was performed at 80° C. for 10 min, followed by cooling. Then, 100 μl of a strong base cation exchange resin, 100 μl of a strong acid anion exchange resin, and 10 mg of activated carbon were added, and the mixture was stirred and centrifuged. Then, the supernatant was diluted 2-fold, and measurement was performed by HPLC (Shodex Asahipak NH2P-50 4E Φ 4.6×250 mm: Shodex) using an RI detector under the condition of a column temperature of 40° C. and a mobile phase flow rate of 1.5 ml (80% acetonitrile). […] Meanwhile, the sequence of the ydgJ gene is shown in SEQ ID NO: 1, and the amino acid sequence corresponding thereto is shown in SEQ ID NO: 2.
Meanwhile, enzyme reaction product was measured as follows: 10 mg of scyllo-inosose, 40 mg of NADPH, and 10 U of the enzyme were allowed to react in 1.0 ml of 100 mM Tris buffer (pH 8.0) at 36° C. for 4 hours, and a heat treatment was performed at 80° C. for 10 min, followed by cooling. Then, 100 μl of a strong base cation exchange resin, 100 μl of a strong acid anion exchange resin, and 10 mg of activated carbon were added, and the mixture was stirred and centrifuged. Then, the supernatant was diluted 2-fold, and measurement was performed by HPLC (Shodex Asahipak NH2P-50 4E Φ 4.6×250 mm: Shodex) using an RI detector under conditions of a column temperature of 40° C. and a mobile phase flow rate of 1.5 ml (80% acetonitrile).

[4] = Km values of scyllo-inositol dehydrogenase for scyllo-inosose (reciprocal plot); settings: NADPH, pH 8.0, 36° C.
Description: The determination is carried out such that the Km value is calculated after reciprocal plot according to the general method.
After the reaction, […] of water was immediately added thereto, and the absorbance at 340 nm was measured. From the blank value of a test solution prepared by using water instead of the enzyme solution, the decrease in the absorbance at 340 nm was measured. The enzyme solution was diluted as required. The Km values were calculated by the reciprocal plot.

[5] = Substrate specificity of scyllo-inositol dehydrogenase (relative activity of oxidation, absorbance at 545 nm); settings: relative to reactivity to scyllo-inositol, NADP^+, pH 8.0, 25° C.
Description: Examples of an inositol isomer include scyllo-inositol (SI), myo-inositol (MI), D-chiro-inositol (DCI), L-chiro-inositol (LCI), epi-inositol (EI), muco-inositol (MuI), allo-inositol (AI), and neo-inositol (NI).
The inositol isomers include scyllo-inositol (SI), myo-inositol (MI), D-chiro-inositol (DCI), L-chiro-inositol (LCI), epi-inositol (EI), muco-inositol (MuI), allo-inositol (AI), and neo-inositol (NI).
The reaction rate was calculated from the absorbance increments at the respective times.

| Molecule | Optimum pH [1] | Heavy metal effects: activation [2] | Heavy metal effects: strong inhibition [2] | share of scyllo-inositol in the product of scyllo-inosose reduction [3] [%] | Reduction reaction product [3] | Km [4] [mM] | Substrate specific Relative activity (20 to 70%) [5] | Substrate specific Relative activity (70% or more) [5] | Substrate specific Relative activity (less than 20%) [5] | Heavy metal effects: activation ([2]; listed as enzyme derived from Bacillus subtilis 168) |
| --- | --- | --- | --- | --- | --- | --- | --- | --- | --- | --- |
| B1 | pH 6.5-8.5 | Co, Mn | Sn, Zn | 100 | Only SIS → SI | 9.2 | LCI, MuI | SI, MI, DCI, EI | AI, NI | – |
| B2 | pH 7.0-8.5 | Co, Mn, Ca | Sn, Zn | 100 | Only SIS → SI | 2.6 | MuI | SI, MI, DCI, EI, LCI | AI, NI | – |
| B3 | pH 7.0-8.5 | Co, Mn, Zn | Sn | 100 | Only SIS → SI | 3.5 | DCI, EI, AI, NI | SI, MI | LCI, MuI | Zn^2+ ion |
| B4 | pH 7.5-9.0 | Co | Sn, Zn | 100 | Only SIS → SI | 3.9 | LCI, EI, MuI | SI, MI, DCI | AI, NI | – |

Reference: patent publication US8409833B2 (Hokko Chemical Industry Co., Ltd., priority 2003, dated 2013)
